Reference: paper PMC5399183

Molecular target: Recombinant human integrin αvβ5 (human) (UniProt P06756)
Chain of UniProt P06756 (P06756 31-1048, chain 1 of 2): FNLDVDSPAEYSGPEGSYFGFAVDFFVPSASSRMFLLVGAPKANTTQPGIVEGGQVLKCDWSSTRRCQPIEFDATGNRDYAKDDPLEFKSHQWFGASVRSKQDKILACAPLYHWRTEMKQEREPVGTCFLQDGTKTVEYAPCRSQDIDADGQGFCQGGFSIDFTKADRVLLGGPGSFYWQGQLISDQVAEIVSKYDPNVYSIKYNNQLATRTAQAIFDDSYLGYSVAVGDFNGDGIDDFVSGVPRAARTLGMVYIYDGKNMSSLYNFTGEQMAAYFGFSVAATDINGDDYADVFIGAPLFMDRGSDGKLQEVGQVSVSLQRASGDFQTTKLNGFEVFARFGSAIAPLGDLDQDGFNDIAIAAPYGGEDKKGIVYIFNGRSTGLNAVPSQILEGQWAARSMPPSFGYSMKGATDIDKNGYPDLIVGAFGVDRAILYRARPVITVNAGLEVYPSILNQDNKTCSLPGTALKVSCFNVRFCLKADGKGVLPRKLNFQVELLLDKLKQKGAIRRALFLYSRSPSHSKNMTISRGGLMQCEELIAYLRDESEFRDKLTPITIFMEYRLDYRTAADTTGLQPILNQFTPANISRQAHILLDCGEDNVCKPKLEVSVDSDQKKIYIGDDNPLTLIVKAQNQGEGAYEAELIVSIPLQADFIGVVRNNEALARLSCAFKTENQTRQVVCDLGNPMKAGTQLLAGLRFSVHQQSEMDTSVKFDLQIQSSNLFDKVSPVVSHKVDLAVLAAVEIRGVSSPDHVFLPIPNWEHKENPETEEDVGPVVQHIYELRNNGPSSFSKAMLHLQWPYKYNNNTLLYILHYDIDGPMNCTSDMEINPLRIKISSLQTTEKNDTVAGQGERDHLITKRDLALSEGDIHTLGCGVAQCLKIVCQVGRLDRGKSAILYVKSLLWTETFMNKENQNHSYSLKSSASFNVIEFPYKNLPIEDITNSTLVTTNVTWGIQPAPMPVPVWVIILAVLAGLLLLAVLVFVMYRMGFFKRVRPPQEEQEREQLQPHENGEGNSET
Chain of UniProt P06756 (P18084 24-719, chain 2 of 2, further chain): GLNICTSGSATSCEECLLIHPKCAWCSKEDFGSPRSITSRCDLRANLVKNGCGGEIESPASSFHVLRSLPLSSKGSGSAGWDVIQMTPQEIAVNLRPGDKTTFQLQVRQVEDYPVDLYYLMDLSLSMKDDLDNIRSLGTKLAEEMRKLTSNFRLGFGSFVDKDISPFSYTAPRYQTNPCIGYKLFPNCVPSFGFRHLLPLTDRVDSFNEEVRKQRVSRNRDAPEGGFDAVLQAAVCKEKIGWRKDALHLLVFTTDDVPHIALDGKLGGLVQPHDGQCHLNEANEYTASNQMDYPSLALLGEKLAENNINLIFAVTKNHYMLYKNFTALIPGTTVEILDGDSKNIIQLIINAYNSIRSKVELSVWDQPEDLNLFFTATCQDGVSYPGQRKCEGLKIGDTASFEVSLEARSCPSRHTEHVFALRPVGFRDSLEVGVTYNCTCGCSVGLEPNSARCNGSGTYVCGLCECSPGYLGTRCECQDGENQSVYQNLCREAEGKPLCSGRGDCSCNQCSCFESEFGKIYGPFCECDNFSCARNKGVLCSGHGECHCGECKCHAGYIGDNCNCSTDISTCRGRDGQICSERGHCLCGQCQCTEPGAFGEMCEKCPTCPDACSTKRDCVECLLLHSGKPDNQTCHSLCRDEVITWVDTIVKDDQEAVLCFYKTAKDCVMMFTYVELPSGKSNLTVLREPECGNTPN

Ang2-induced astrocyte apoptosis under high glucose (annexin-V/PI FACS, 48 h, percentage of apoptotic cells) with anti-integrin αvβ5 blocking antibody (10 μg/ml): 19.3%
Substance: Recombinant human angiopoietin 2 (from UniProt O15123 19-496) (ligand)
